For “Protein kinase C purified from bovine brain”, the 32P incorporated in the series with AAAASKR was found to be 13.3 pmol/unit; with AKRASAA it was 3 pmol/unit; in the series with AKRASEA it was 0.2 pmol/unit; in the series on AKRESAA, 0.4 pmol/unit; with AKRPSAA it was 3.9 pmol/unit; with ARKASAA, 5.7 pmol/unit. Moreover, the 32P incorporated with ARRASAA came to 18.8 pmol/unit; in the series on EKRASAA it was 0.1 pmol/unit; with KKRKSAA it was 11.1 pmol/unit; with PKRASAA, 8.7 pmol/unit; with RKKKSAA, 3.1 pmol/unit. Also, the 32P incorporated, % (AKRASAA = 100) with AAAASKR is 403%; in the series with AKRASAA it was 100%; with AKRASEA, 6%; in the series on AKRESAA it was 12%; in the series with AKRPSAA, 118%; in the series on ARKASAA, 173%. The 32P incorporated, % (AKRASAA = 100) in the series with ARRASAA was 570%; with EKRASAA, 3%; in the series on KKRKSAA, 370%; in the series with PKRASAA it was 264%; in the series on RKKKSAA, 94%.

The record behind these values is patent publication US20030088057.
